The target in the assay is transferrin receptor on H4IIE hepatoma cells (rat) (UniProt Q99376). Kind of assay: cell-based or functional assay.
Sequence of UniProt Q99376 (Q99376 whole entry): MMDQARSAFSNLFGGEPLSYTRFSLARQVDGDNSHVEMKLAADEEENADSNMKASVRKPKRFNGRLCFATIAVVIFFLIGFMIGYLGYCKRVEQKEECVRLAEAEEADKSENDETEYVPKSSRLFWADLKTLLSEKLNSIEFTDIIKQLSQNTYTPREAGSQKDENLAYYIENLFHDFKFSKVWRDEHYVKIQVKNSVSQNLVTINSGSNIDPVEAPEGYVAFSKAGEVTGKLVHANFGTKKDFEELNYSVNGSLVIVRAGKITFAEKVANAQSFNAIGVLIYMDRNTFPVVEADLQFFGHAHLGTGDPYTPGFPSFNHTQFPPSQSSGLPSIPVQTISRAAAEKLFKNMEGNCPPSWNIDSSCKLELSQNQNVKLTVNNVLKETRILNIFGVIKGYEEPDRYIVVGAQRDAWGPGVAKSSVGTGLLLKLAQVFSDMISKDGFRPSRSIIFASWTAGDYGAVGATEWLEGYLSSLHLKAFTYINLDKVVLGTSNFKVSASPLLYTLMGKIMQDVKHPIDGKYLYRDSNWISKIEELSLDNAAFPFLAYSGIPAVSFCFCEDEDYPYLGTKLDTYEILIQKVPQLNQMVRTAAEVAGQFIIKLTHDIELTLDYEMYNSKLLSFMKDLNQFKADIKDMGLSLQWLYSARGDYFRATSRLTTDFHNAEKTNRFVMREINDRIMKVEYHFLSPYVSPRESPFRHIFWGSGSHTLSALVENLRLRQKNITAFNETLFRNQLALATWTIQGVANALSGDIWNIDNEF

“PI-Tf fusion protein (proinsulin-transferrin recombinant fusion protein)”: the IC50 of inhibition of glucose production in H4IIE cells (24 hr treatment) was 4.6 pM; the activity in inhibition of glucose production in H4IIE cells relative to proinsulin and insulin was determined as 300 fold.

The values are drawn from US10513563.
